Measured values reported in the supplement of paper PMC10724198.
± gives the standard deviation of the averaged measurements.

Tested on: Saccharomyces cerevisiae
Experiment: protein stability index of tFT-peptide fusion (C-terminal peptide) (PSI (0-1 scale)); higher = more stable (slower turnover)
Conditions: genetic background: wild type; temperature: 30 C
Method: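 Multiplexed protein stability (MPS) profiling in S. cerevisiae. Random 12-aa peptides (tFT-X12 library) are fused to the C-terminus of a sfGFP-mCherry tandem fluorescent timer, after mCherry and a GGGS linker. Cells are FACS-sorted into 8 mCherry/sfGFP bins and deep-sequenced. The protein stability index (PSI) is the read-weighted bin average, scaled from 0 (unstable) to 1 (stable). Only peptides with >10 reads are reported; cells were grown at 30 °C in SC-His with glucose.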
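Further: PSI is a weighted mean of sequencing reads over stability bins, variants kept only with over 10 reads, mCherry proximal and sfGFP distal, peptide attached via GGGS linker.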

## RYHQFSFQSNKS
  protein stability index: 0.764 ± 0.072

## PSPPPGPPPLPP
  protein stability index: 0.613 ± 0.011

## DSGVAVVLVGCV
  protein stability index: 0.529 ± 0.013

## RVPNLYLRSRKI
  protein stability index: 0.68 ± 0.034

## LSLTRIFQLTRW
  protein stability index: 0.721 ± 0.023

## SNTKPTCSNQQS
  protein stability index: 0.688 ± 0.077

## WGIVGLRGSRVG
  protein stability index: 0.618 ± 0.018

## HPPPPAPTPSSR
  protein stability index: 0.711 ± 0.04

## SPRTVCPELHFI
  protein stability index: 0.691 ± 0.044

## FASVVADVFQFP
  protein stability index: 0.772 ± 0.088

## HWGRGGRSGGDR
  protein stability index: 0.697 ± 0.025

## VTVDLGCRATGE
  protein stability index: 0.675 ± 0.067

## VLSFALGSAGGR
  protein stability index: 0.678 ± 0.069

## AVGMVLEYFTLG
  protein stability index: 0.671 ± 0.029

## LLFCMGSCGPVR
  protein stability index: 0.624 ± 0.027

## INKNKKKEKLTK
  protein stability index: 0.697 ± 0.015

## GGSDLLIGFWPC
  protein stability index: 0.716 ± 0.027

## GRAGEKRGGRRL
  protein stability index: 0.66 ± 0.013

## RLAAPPRYPPLP
  protein stability index: 0.731 ± 0.12

## RKKRYRRRKIKK
  protein stability index: 0.773 ± 0.025

## YVWCINSARLVG
  protein stability index: 0.587 ± 0.01

## CYFLAMPLYFPL
  protein stability index: 0.622 ± 0.014

## RRQWVLEQEGGT
  protein stability index: 0.732 ± 0.056

## PTRPPPTSHTPY
  protein stability index: 0.685 ± 0.02

## RSPPLTPPPCPS
  protein stability index: 0.6931 ± 0.005

## PFPPPPRLHLPP
  protein stability index: 0.648 ± 0.04

## GPWGGSGGGGVG
  protein stability index: 0.628 ± 0.041

## TRPIGSPPSPAK
  protein stability index: 0.702 ± 0.017

## IMRLCSSNRICG
  protein stability index: 0.678 ± 0.027

## LAVVSTRCRLEL
  protein stability index: 0.694 ± 0.062

## RLCRQPPSLLPP
  protein stability index: 0.6958 ± 0.0053

## PLPPAARPPSAL
  protein stability index: 0.729 ± 0.015

## PPSLPAPPPPPA
  protein stability index: 0.6655 ± 0.0023

## DGVAMCGLKASL
  protein stability index: 0.643 ± 0.1

## GGGGLGWWEWDR
  protein stability index: 0.736 ± 0.071

## RLIGLLRKTSKK
  protein stability index: 0.719 ± 0.089

## PPPPPPPPVPLL
  protein stability index: 0.708 ± 0.017

## CVVYLDVRLPVT
  protein stability index: 0.58 ± 0.023

## RRGAVGAAGLKG
  protein stability index: 0.68884 ± 7e-05

## SLRPPSTFRRSC
  protein stability index: 0.71 ± 0.019

## PPPLPLSLCEPL
  protein stability index: 0.7 ± 0.019

## GDKKYRYGNKVF
  protein stability index: 0.737 ± 0.086

## SLSTSFSSRPPS
  protein stability index: 0.704 ± 0.089

## PSFVPHLPRPPP
  protein stability index: 0.722 ± 0.071

## EGVVGGRWCGRG
  protein stability index: 0.676 ± 0.082

## PSPPSLPSCYAT
  protein stability index: 0.717 ± 0.029

## PRYCQIKIISHK
  protein stability index: 0.554 ± 0.14

## GWIGVFGLFGCG
  protein stability index: 0.752 ± 0.083

## PPALPPCRSRLV
  protein stability index: 0.72 ± 0.049

## QRLQVLIGYDRR
  protein stability index: 0.691 ± 0.039

## PPPPSLPHTIGP
  protein stability index: 0.643 ± 0.042

## VGKQRISPSSPS
  protein stability index: 0.664 ± 0.018

## PAPPPPPPTPPP
  protein stability index: 0.646 ± 0.039

## APSGVGANGWGR
  protein stability index: 0.654 ± 0.0085

## VRLWLSLRLGFS
  protein stability index: 0.587 ± 0.068

## GQVATAGDIRVR
  protein stability index: 0.69065 ± 0.00026

## GGPAWGRVGMYW
  protein stability index: 0.666 ± 0.047

## ATHPGCATPDAH
  protein stability index: 0.704 ± 0.015

## WSFQTRSVNICI
  protein stability index: 0.633 ± 0.021

## PSIPPPSPSPPA
  protein stability index: 0.717 ± 0.027

## APPSPPSPPGLP
  protein stability index: 0.672 ± 0.033

## LLPVLGFPLPFD
  protein stability index: 0.75 ± 0.065

## FLPQCLGSNFHL
  protein stability index: 0.725 ± 0.016

## FLVCFPFALFGA
  protein stability index: 0.495 ± 0.052

## FSFQTLPTPTSP
  protein stability index: 0.655 ± 0.06

## PQHLPFPSPAPP
  protein stability index: 0.711 ± 0.011

## PPPPPPPPAPPY
  protein stability index: 0.725 ± 0.017

## AMSLWFGFFHFV
  protein stability index: 0.555 ± 0.018

## WAIPSSPQYKRA
  protein stability index: 0.676 ± 0.031

## GGFLMVSPMDWA
  protein stability index: 0.703 ± 0.026

## RLNKPRAPEKKA
  protein stability index: 0.717 ± 0.11

## PPAPLLLPLSRP
  protein stability index: 0.735 ± 0.0098

## SCRKGLSPRPPS
  protein stability index: 0.7 ± 0.007

## GLPLPTPLLPSP
  protein stability index: 0.723 ± 0.01

## ELRTKRGASNPR
  protein stability index: 0.7097 ± 0.0021

## VAVRGGCGDWGR
  protein stability index: 0.689 ± 0.021

## KNIKKKNKNDKK
  protein stability index: 0.6936 ± 0.0063

## HSVEPARSSSAM
  protein stability index: 0.669 ± 0.07

## RCALATTNHPRS
  protein stability index: 0.718 ± 0.056

## EVTRAGEDAGDG
  protein stability index: 0.643 ± 0.023

## PPHAPLPPPTPP
  protein stability index: 0.634 ± 0.037

## DLSDPGHSLSIL
  protein stability index: 0.68 ± 0.055

## TKTCPMGVIEIC
  protein stability index: 0.656 ± 0.0013

## YERKGRQVGGRT
  protein stability index: 0.592 ± 0.048

## GGFICRHGVGRG
  protein stability index: 0.708 ± 0.011

## SEIRIQTFETGG
  protein stability index: 0.671 ± 0.061

## PPPSQPTSPPPP
  protein stability index: 0.732 ± 0.067

## SGRGLPLGGAFD
  protein stability index: 0.727 ± 0.026

## AVGMGCLSFFVV
  protein stability index: 0.553 ± 0.056

## IKTCANGPPHSM
  protein stability index: 0.64 ± 0.06

## APPPPPPDPPLP
  protein stability index: 0.685 ± 0.011

## GGWGRRRLDGGR
  protein stability index: 0.7221 ± 0.0064

## GFVVCVFPLLLP
  protein stability index: 0.563 ± 0.029

## PPAPPAFPRFGT
  protein stability index: 0.703 ± 0.0051

## VVRSDFCFFFGI
  protein stability index: 0.754 ± 0.065

## EKEFLWKAISAV
  protein stability index: 0.504 ± 0.016

## PKLSKLLQHSNV
  protein stability index: 0.658 ± 0.048

## GGGERCEGVWVE
  protein stability index: 0.579 ± 0.01
